Laboratory results reported in the Human Domainome abundance scans (Beltran et al. 2025).
± gives the uncertainty stated by the source.

B1: Ras GTPase-activating protein 1, residues 281 to 341; numbered along this chain, P20936 (parent)
chain: RRRVRAILPYTKVPDTDEISFLKGDMFIVHNELEDGWMWVTNLRTDEQGLIVEDLVEEVGR

Variants of: B1
Assay: abundance fitness (aPCA) (normalised: wild type 0, dead -1); higher = more abundant; growth selection in yeast, the domain comes from the species named
Settings: Homo sapiens

In order of rising abundance fitness:
1. I19Q  -1.16 ± 0.23
2. I19A  -1.14 ± 0.12
3. D25W  -1.11 ± 0.17
4. I19W  -1.04 ± 0.12
5. Y10D  -1.04 ± 0.13
6. T16Q  -1.03 ± 0.21
7. I19N  -1.03 ± 0.069
8. K12I  -1.01 ± 0.062
9. T16D  -1.01 ± 0.068
10. Y10T  -0.999 ± 0.098
11. D25R  -0.997 ± 0.062
12. I19P  -0.989 ± 0.11
13. F21K  -0.988 ± 0.081
14. K12F  -0.985 ± 0.052
15. T16L  -0.973 ± 0.056
16. F27W  -0.957 ± 0.1
17. D25A  -0.949 ± 0.066
18. D25Y  -0.948 ± 0.051
19. D25I  -0.946 ± 0.059
20. I19F  -0.943 ± 0.061
21. T16Y  -0.942 ± 0.06
22. I19D  -0.941 ± 0.063
23. F21P  -0.939 ± 0.05
24. I19K  -0.934 ± 0.13
25. F21W  -0.92 ± 0.068
26. F21G  -0.914 ± 0.029
27. T16P  -0.911 ± 0.074
28. F21S  -0.908 ± 0.028
29. F21T  -0.907 ± 0.038
30. F27R  -0.905 ± 0.054
31. D25V  -0.904 ± 0.046
32. D25H  -0.895 ± 0.059
33. T16V  -0.894 ± 0.047
34. I19E  -0.881 ± 0.14
35. T16I  -0.879 ± 0.059
36. I19S  -0.878 ± 0.042
37. P9I  -0.876 ± 0.055
38. D25S  -0.874 ± 0.042
39. T16M  -0.87 ± 0.12
40. F21E  -0.866 ± 0.063
41. D25C  -0.864 ± 0.047
42. F21D  -0.862 ± 0.03
43. I19Y  -0.86 ± 0.043
44. F21R  -0.855 ± 0.031
45. P9V  -0.855 ± 0.054
46. D25L  -0.852 ± 0.062
47. F21H  -0.84 ± 0.036
48. Y10G  -0.84 ± 0.091
49. Y10E  -0.838 ± 0.46
50. F27Y  -0.834 ± 0.045
51. I19R  -0.833 ± 0.05
52. F21N  -0.83 ± 0.03
53. K12Y  -0.824 ± 0.044
54. D25F  -0.822 ± 0.047
55. F27G  -0.82 ± 0.04
56. D15P  -0.819 ± 0.071
57. F27Q  -0.815 ± 0.12
58. K12D  -0.806 ± 0.056
59. P9W  -0.805 ± 0.095
60. F27S  -0.798 ± 0.036
61. P9Y  -0.796 ± 0.046
62. K12V  -0.788 ± 0.047
63. T16H  -0.784 ± 0.047
64. K12L  -0.779 ± 0.041
65. P9L  -0.772 ± 0.048
66. D25Q  -0.768 ± 0.22
67. T16F  -0.752 ± 0.04
68. F27D  -0.748 ± 0.051
69. T16A  -0.746 ± 0.053
70. F21Q  -0.74 ± 0.068
71. P9F  -0.73 ± 0.039
72. Y10V  -0.728 ± 0.06
73. D25E  -0.712 ± 0.094
74. K12T  -0.7 ± 0.048
75. T16W  -0.688 ± 0.061
76. D25P  -0.664 ± 0.093
77. Y10S  -0.623 ± 0.042
78. T16N  -0.605 ± 0.037
79. I28G  -0.604 ± 0.022
80. Y10A  -0.588 ± 0.088
81. D15V  -0.577 ± 0.03
82. Y10F  -0.577 ± 0.042
83. Y10M  -0.577 ± 0.096
84. F21I  -0.568 ± 0.024
85. Y10C  -0.539 ± 0.05
86. F21M  -0.538 ± 0.039
87. D15I  -0.518 ± 0.045
88. Y10K  -0.485 ± 0.15
89. F27C  -0.485 ± 0.029
90. F21V  -0.478 ± 0.021
91. T16R  -0.456 ± 0.029
92. I19C  -0.451 ± 0.028
93. T16G  -0.439 ± 0.027
94. Y10Q  -0.422 ± 0.089
95. M26G  -0.416 ± 0.03
96. T16C  -0.38 ± 0.027
97. Y10N  -0.35 ± 0.048
98. M26K  -0.333 ± 0.083
99. M26P  -0.325 ± 0.047
100. I19M  -0.316 ± 0.048
101. P9R  -0.311 ± 0.035
102. P9M  -0.308 ± 0.082
103. D15W  -0.276 ± 0.059
104. Y10R  -0.27 ± 0.045
105. D15M  -0.269 ± 0.077
106. D15L  -0.246 ± 0.033
107. D15F  -0.241 ± 0.027
108. F27L  -0.241 ± 0.029
109. P9K  -0.232 ± 0.07
110. K12E  -0.218 ± 0.11
111. D15T  -0.213 ± 0.048
112. D15Q  -0.207 ± 0.072
113. K12Q  -0.202 ± 0.096
114. K12M  -0.188 ± 0.053
115. M26R  -0.186 ± 0.032
116. K12H  -0.184 ± 0.033
117. M26A  -0.177 ± 0.033
118. D15R  -0.172 ± 0.03
119. D15K  -0.169 ± 0.079
120. D15Y  -0.168 ± 0.028
121. P9H  -0.157 ± 0.036
122. D15A  -0.129 ± 0.029
123. D15C  -0.126 ± 0.029
124. M26S  -0.125 ± 0.028
125. M26W  -0.104 ± 0.048
126. P9E  -0.103 ± 0.069
127. K12P  -0.102 ± 0.037
128. I28N  -0.102 ± 0.022
129. K12C  -0.101 ± 0.029
130. F21C  -0.101 ± 0.021
131. P9N  -0.101 ± 0.031
132. F21Y  -0.091 ± 0.021
133. P9Q  -0.091 ± 0.12
134. K12S  -0.077 ± 0.027
135. P9T  -0.076 ± 0.038
136. I28K  -0.07 ± 0.033
137. I28C  -0.07 ± 0.021
138. I28H  -0.069 ± 0.022
139. I28A  -0.068 ± 0.022
140. M26H  -0.061 ± 0.034
141. P9G  -0.059 ± 0.03
142. M26Q  -0.056 ± 0.062
143. K12R  -0.052 ± 0.033
144. P9S  -0.044 ± 0.026
145. M26F  -0.042 ± 0.029
146. M26C  -0.042 ± 0.027
147. D15H  -0.04 ± 0.034
148. M26I  -0.039 ± 0.031
149. I28L  -0.038 ± 0.022
150. T16S  -0.031 ± 0.024
151. M26T  -0.03 ± 0.038
152. K12A  -0.029 ± 0.032
153. I28M  -0.029 ± 0.031
154. M26N  -0.029 ± 0.031
155. M26Y  -0.028 ± 0.029
156. M26L  -0.026 ± 0.03
157. D15N  -0.022 ± 0.037
158. D15G  -0.011 ± 0.025
159. I19L  -0.004 ± 0.03
160. M26D  0.012 ± 0.03
161. K12G  0.023 ± 0.032
162. I28D  0.029 ± 0.022
163. P9D  0.049 ± 0.033
164. D15E  0.05 ± 0.05
165. Y10H  0.084 ± 0.045
166. I28E  0.098 ± 0.034
167. M26E  0.117 ± 0.057
